Test results as given in IntAct's records for PubMed 20584941.

B1: Protein RESTRICTED TEV MOVEMENT 3 (Arabidopsis thaliana (Mouse-ear cress)), D5K228 (parent)
chain: MGKQFDKKITWTIKNFASLLSDLIYSDHFVVGGCKWHLRAYPKGYNNANSLSLFLGVAVPTSLPSGWRRHTKFRLTLVNQLSDKLSQSKLNELEQWFDEKTTNWGLSSMCPLNEIHAKDSGFLLNGELKIVVEIKVLETIGKLDVTEETSTITETVDVNGFQLLPSQAKSVSRMFAKHPELASDLRPKNPNLRTGYMSLLLSLIETLSQLPQQMSKDDLLDAYDALGSMRDAGFKLDWLEKKLYEVSEKKENEEASETGLQEMEEELKDMKQKCLEMEALVEKEKAKVSTAKAPISFDDIV
partner: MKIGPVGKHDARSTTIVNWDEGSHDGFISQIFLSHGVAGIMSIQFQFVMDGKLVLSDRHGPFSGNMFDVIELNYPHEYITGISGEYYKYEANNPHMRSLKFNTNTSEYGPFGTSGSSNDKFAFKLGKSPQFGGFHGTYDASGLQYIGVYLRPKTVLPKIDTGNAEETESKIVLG

Variants of: B1
Settings: with jal1_arath RTM1, Q9SE37

Row | effect of a mutation on the interaction | Variant
1 | decreasing interaction | MGKQFDKKITWTIKNFASLLSDLIYSDHFVVGGCKWHLRAYPKGYNNANSLSLFLGVAVPTSLPSGWRRHTKFRLTLVNQLSDKLSQSKLNELEQWFDEKTTNWGLSSMCPLNEIHAKDSGFLLNGELKIVVEIKVLETIGKLDVTEETSTITETVDVNGFQLLPSQAKSVSRMFAKHPELASDLRPKNPNLRTGYMSLLLSLIETLSQLPQQMSKDDLLDAYDALGSMRDAGFKLDWLEKKLYEVSEKKENEEASETGLQEMEEELKDMKQKCLEMEALVEKKKAKVSTAKAPISFDDIV [E284K]
